test: soluble on expression in E. coli; label from the status in PepcDB or PDB records

Sequence | soluble on expression in E. coli
MGSDKIHHHHHHMIRIANGQGFWGDWLEAPVRLVEQGPLDYLALDYLAEVTMSILQKQKQADPKLGYARDFPPLIARIAEQIRERGVTVIANAGGVNPVACAREVVRLAPGLKVAVVLGDDVYPRLDSFLAKGYEMRDMDTGEPIAAIRDRIQSANAYIGAFPLAEALGTGANVVIAGRSTDTALALAPMVHRFGWGPDAFDRLAAGTIAGHIIECGAQCTGGNCQVDWESIPDMANIGYPIVEAEPDGSFVVTKHPAAGGRVSLDSVKEQLLYELGDPQRYITPDCIADFTSVRLAADGPDRVRVTDIRGGPRPPSLKLSISYANGWKAVGTLVYSWPQALAKARAADRIVRERLRNLGLSFEEIHTEFFGVSACHGALAPPNPDPPEVQLRIGVRGQDKKAVDRFTRELIPLVLNGPPGATGFGEGRPPVREIVAYWSTLVPREEIDTRVEVVE | not soluble
MGSDKIHHHHHHMYIDGVFSGGGVKGIALAGAYEVLEEKGFRFKRVAGTSAGAIIAAFIASGYTSKEIHALIEEVDGEKLLDQRYSFLPLKMLQWVSIYWRLGLYKGDTIEKWIADLLRAKGIRVFGDLQKGSLRLIASDLTNGTMIVLPDDLARYGLNPDMFPVARAVRMSCSIPYFFEPIKLKTDTGTATVVDGGVLSNFPIWLFSKERKRPVIGVTLAPRERERPKKNIRNAFELFGALFETMKDAHDARHIASRYEQNIIFLPVDDVMATDFHLTQQKKLALIELGKRRTELFLKQWTY | not soluble
MSDENLETESTSKALEDILSYTDSPAFRHIFSFFLGRPRIRAKSTLNLDILSEEVVIRKGKLIHTWQNARAVFYNSNIRLQTKNNQDEALQIRNMKVDVHESKRGRALRLKDDDVCYLIIFQRPNILEAWLTRAQQVEKSNHVDASDEQLTLIPEQILNNEARVQILNLRRNSLISRPPTEKSMAPLGYIDDLYRVHSLQVIDLSANQILSFPIQLTLLSHLRQLNLSSNYISSVPSECSNMRRLQYLNLSNNQLDTLPDSISELQNLQSLDISFNQFSQIPPCLFHLTLEMWRLAGNNIEKIDRVGEMQIQKIDLRRNVLDTSFRLDIENITHLDLRDNSMISTVHLTNLRFLKVIHCERLQLSSLHLSGESLTHVYADHNLLDSLVVMPLPQNLQTLSLSFNHFRNLPDWISDCPNLTFLRANNNSLVALPERIFYSQSLRSIFAFINEIEHIPDFGEENCLETLILYKNKLSSLPKHFFSILPRLRQLNISSNFIELLPYFDGSSFCRLQILRCANNYLTENSVPVIVNMKHLKIIDLSHNRLNSFDDSALSSLELLEDLNLSSNRLTRLADCLALLPCLQVLRAHSNQLVHVPEFRASNQLHTIDVSSNNISLGTLQFKAPPNLRHFDVTCNSGDFDTENFPENAKMHSKMNTINISEGSQNLFGFQIGVSGSRGMKNKQCIRQVRVENTFGFIDGGSNSYMSSSICRFMTSYLKENVSMDIRSILLRCHCELGEEGERLGASVMIIRVHEKRLEIASTGTMSAAIARNQKLKMIINGRYEIDDDEYSRIREAHGFVDEENRINGVIGSSRQIGHFSTFPVVLPTHSYRNIQLNEQIEGLIVGNNMIWNMLSIDDLNSTFHNNRSPIVVAKKIQDQLQSYDYGGNSNILVLRRIKPQMTFNGFSTSSTKNQVTPDIAIPKIDEQLVLAVPALILPEYHPSPPVPPPIPAIRHRTPSPPPPPLPSSTPPPVSSEHEEINVRQSSTLSGGYTLSIDRFYSSSSTVSSRKQFNETRDLLSKSLKLSPPNTVTFNI | not soluble
AQSVPWGISRVQAPAAHNRGLTGSGVKVAVLDTGISTHPDLNIRGGASFVPGEPSTQDGNGHGTHVAGTIAALNNSIGVLGVAPNAELYAVKVLGASGSGSVSSIAQGLEWAGNNGMHVANLSLGSPSPSATLEQAVNSATSRGVLVVAASGNSGAGSISYPARYANAMAVGATDQNNNRASFSQYGAGLDIVAPGVNVQSTYPGSTYASLNGTSMATPHVAGAAALVKQKNPSWSNVQIRNHLKNTATSLGSTNLYGSGLVNAEAATR | soluble
MSLSKRAYFGTDGIRGQANKHPMTAEVALRVGLAAGKLFRSQDERRHLVVIGKDTRLSGYMIEPALVAGLTSVGLDVRLFGPLPTPAVAMMTRSMRADLGIMISASHNSFADNGIKLFGPDGYKLSDAQELGIEALMDQGLQEGLAAPRELGRVKRIDDAQARYVEIVKATFPRHLNLSGLRIVIDCANGAAYKVAPTALYELGAEVITLGVSPDGTNINEECGSTHPEAMAKMVREYRADIGIALDGDADRLVICDEKGVVVDGDQIMAIIAAASHKAGTLKGGGVVATVMSNLGLERQLNTMGLSLERTAVGDRYVMQRMREGGFNVGGEQSGHLILSDFSTTGDGLIAALQVLAVMVETDKPMSALGRQFEPVPQLLENVRFVGGKPLEAAAVKEAIADGEAQLNGAGRIVVRASGTEPLIRIMAEGDDPALVKKVVKSIASAVKEGHHHHHH | soluble
MSDEKKSTDIDLKNLKAGGFIKERGKDLFTVRLRVPGGRMPVARLKKIAEVAEKYGQGMVHLSVRQSVELININFRDFDAVVAELGEGTQKVASCGARVRVPTACGGCEYNPNGLVDTQKSALEVDEKLFGTSTGHHKFKVGFAGCPFDCPKSATNDVGFQGAIWPVLYADECIGCGLCDKSCTEDAIVMGDDGKPRFIPENCLYCGDCLKVCPSEAWRAEKKGYTVRIGGKWGRRPLVGTLFAEFLPEEQVFDFIAAVLDWYKEKAEGQGRIRLGDVIRAEGPDALLGYLRERFPAAVVDATIPPQRIATQIGKEKRVPLEHHHHHH | soluble
MTRHSAVRQAIIAALKKTDDGSTTFFDGRPVVVEEDELPAVAVYLSDAQYTGPEVDGDIWSAVLHVEVFLKATAPDSALDEQMENRVYPALGSVAGLGDIIRTMSAQGYNYQRDDEMAMWGSADLSYDITYSM | not soluble
DVQINIRNNVYIPPCTINNGQNIVVDFGNINPEHVDNSRGEVTKTISISCPYKSGSLWIKVTGNTMGGGQNNVLATNITHFGIALYQGKGMSTPLTLGNGSGNGYRVTAGLDTARSTFTFTSVPFRNGSGILNGGDFRTTASMSMIYN | soluble
MAHHHHHHMCATSKENTPEFYKKYVKDIIDRIEDNARREFEAIWRDHESHPGMSKTLISDTLSEKNVKVRANILASDVFKNKKLVRYILFHYTPKTLLEVVPVDELMNRVPIAYQHAICAMWLASEYVYSTGIDSNEFDFFSFMSAHIERASAMAKEQSR | soluble
GAKSEMAFAGKGEISPRAITMWDFSWLERRWPGAGYEDWDQVLDELSERGYNAIRIDAYPHLIAENPMKKWLLKEVWNQQDWGSPDMNEVQVQPNLNLFLSKCKERDIKVGLSSWYRLDVDEVCLKLDTPEKLADCWLTILRSIEEDGLLDTILYVDLCNEWPGDSWAPFFAKTYPNVGWGNWYKEESLRWMKTSLEKMRQVYPDMPFLYSFDHGDVKKYEEVDCSFLDLYEHHIWMAQQNGGEFYKLVGYGYNRFLPDDYKNVVKNAERVYRERPGYWQKLLTDKIELMASVARKNRRPLVTTECWGLVDYKDWPLLKWDWVKDLCELGTITAARTGMWVGVATSNFCGPQFAGMWRDVEWHKRLTSIIRSSPLDESLTKNNEVAAKLLKRL | soluble
MGSSHHHHHHGKTIFVIVPTNEEQVAFLEALAKQDELNFDWQNPPTEPGQPVVILIPSDMVEWFLEMLKAKGIPFTVYVEEGGSENLYFQGGGGGGMDLDAFLSKNNKKSSKKVAKKSADEAALGGFGLETVPRVSTAAAKPITVANTGGSDASAAAGTASPLPAPEKTVAAPVVAVNLNFAGTTRSAKTWDAVKASQDSKRQEEVQAAAARKAKEEAEAAERKAAAGGDDDEVQLPESSPKETKVAKFVARGHRNATGAIGGGEGGAAAAASGRFAPHTQGLSLENLPTLEETFGNARKPSQSTASQSQSQQQPMSLPSQEQNGESAPAATPQESSSTPTSATAVAGSNKYVPPSKSSSTMESSTTLPSSPMPTRGSAGGSSAAAYRPPSGSSGVYKPPSMGAYRPPNASAGEAYKPPAPSAPSSGAGAYKPPTPGGASAGAYRPPASTGEAYKPPSSGGAGVYKPPSAGNSNAGAFKPSTAAGFSADTYKPPVAGSGSSAGAYKPPSAGGSAGVYKPPSKREA | soluble
MAHHHHHHMKQLLSPKTARHSRLFRLANRLAGQKGAPESDGERLSWVNSHVKRTQDMELSREEEALRERIMPLEVGDNAVVSNSQATHGNLFHFREYPMYPGEYVPAGHNTLSSLRDELRSDLTAQSLKEAWMRVSGGMYFKSIDDYYASVDGLDQEQLGEIVSALLPDLRKYEAQALVTKVLESLSKPADSPSRQLSRTITADAVGLDNAPGHYTNFLEWMGRMTETKAFKTEHALFEFSRRKFNREDVRVMFENYNLMSKATLEADSTDSYSHFYTVLHDFSRKVAGEDTRHQIGVRIDPAEVDPETGIAVGHGRADGQKYMFTALIRENRDHNGSVTLLGKPLSVAFDDKSWLMEMVLMPFDEAKLDFRDFDVNLISEGKAMPSFANEIAAFACRMAVANAITKLLPLARIPLKKAGLLSVDRRREPGQFPGFVDGKKNKRKFAKR | not soluble
MTDTNSQWIEMNLQRQRKMLEDKQKQKRHQSAGSVRTTSTAMSMNSMKDYPTFDNSLPFSISDNSSVSVSMNTPLIPTQDPIAQPRMQSMPRQQPQQVQESLISIGDYPDNDINAKLSKVNLTSCVVSDDEDEDKRSYADSPWNTDVVADRIPSEVLPDYNFIKNNLAKFVEDPAVEHCLYKCSITRQKSGVDKGMFPTYFLHLEEFDTDKRQKIFLLAARKRKKSTTANYLLSTDPTNLSREGEGYCAKVRSNALGTQFTVYDSGQNPKKTTNHAAIRQELAAVIYETNVLGFKGPRKMTIVMPGIEPPTENRPAVRCPVRPIQDKHTLLERYRLNDLDSLKILSNKSPQWNDETQSYVLNFHGRVTQASVKNFQIIHQSSPEYIVMQFGRISDDEFTMDFRYPLSAVQAFGIAMTSFHGKLACE | not soluble
MITQRQNAILNLIVEMFTRTHEPVCSKALQDSIDSSSATIRNDMAKLEKMGYLEKAHISSGRMPSRAGFQYFVANSLNLDTIDEQDVYQVVKAFDFEAFKLEDILDAAAKLLAEMTGCTAVIQDVEPTKQRLTGFEIVQLSNHDALAVLTLDESKPVTVQFAIPKNFLSSDLEIFHKLVQGRFLGNTVLDIHYRLRTETPQIVQKYFKITDNVLDLFDYIFSHLFKELIFIEGKVASLAYADLKTYQFLDNPQHVALALRSAISDDEVTKISVAESTEEALENVTVMSHKFLIPYRGTALMHVIGPIEMDYRRMVSLVNVISRVLVMKLTDYYRYLNSNHYEVFLSRNVLKNIERGECLD | not soluble
MSLTVIRKQDVISSVADALQYISYYHPLDFVKALEKAYQREESQAAKDSIAQILINSRMSAEGHRPICQDTGIVTCFVNIGMGVQWDSTDMTVQQMVDEGVRQAYTNPDNPLRASVLMDPAGKRINTKDNTPAVVHINMVPGDKVDIQIAAKGGGSENKTKMVMLNPSDDIAEWVEKTVPLMGAGWCPPGMLGIGIGGTAEKAAVLAKEALMEHIDIHELIERGPQNAEEELRLDIFNRVNKLGIGAQGLGGLTTVVDVKIKSAPTHAASKPVCMIPNCAATRHVHFTLDGSGPAQLTPPKLEDWPQITWEAGANTRRVNLDNITREEIQTWKTGETVLLSGKILTGRDAAHKRIQTMLQKGEKLPDSVDLKDKFIYYVGPVDAVGDEVVGPAGPTTSTRMDKFTDMMLEEVGVMGMIGKAERGPATVESIKKHKAVYLMAVGGAAYLVAKAIKKARVVAFEDLGMEAIYEFEVEDMPVTVAVDSTGANAHQIGPDTWRVKIAEAAKEGGSHHHHHH | soluble
MEQPKYKRVVLKLSGEALAGKQGFGIQPAVIQSIAKQVKEVVELGVEVAIVVGGGNIWRGKTGSEMGMDRATADYMGMLATVMNALALQDSLEQLGVETRVQTSIEMRQVAEPYIRRRAIRHLEKKRVVIFAAGTGNPYFSTDTTAALRAAEIEADVILMAKNNVDGVYSADPNVDANALKYDELSYLDVIKQGLGVMDSTASSLCMDNNIPLIVFSIMEEGNIKRAVLGENIGTIVRGK | not soluble

Reference: the DeepSol protein solubility set
